For experiment [1], the target named is T1, FLAG-tagged wild type (wt) MST1 (mouse, UniProt Q9JI11 1-487).
T1 construct: also called FLAG-MST1; full-length MST1
T1 sequence: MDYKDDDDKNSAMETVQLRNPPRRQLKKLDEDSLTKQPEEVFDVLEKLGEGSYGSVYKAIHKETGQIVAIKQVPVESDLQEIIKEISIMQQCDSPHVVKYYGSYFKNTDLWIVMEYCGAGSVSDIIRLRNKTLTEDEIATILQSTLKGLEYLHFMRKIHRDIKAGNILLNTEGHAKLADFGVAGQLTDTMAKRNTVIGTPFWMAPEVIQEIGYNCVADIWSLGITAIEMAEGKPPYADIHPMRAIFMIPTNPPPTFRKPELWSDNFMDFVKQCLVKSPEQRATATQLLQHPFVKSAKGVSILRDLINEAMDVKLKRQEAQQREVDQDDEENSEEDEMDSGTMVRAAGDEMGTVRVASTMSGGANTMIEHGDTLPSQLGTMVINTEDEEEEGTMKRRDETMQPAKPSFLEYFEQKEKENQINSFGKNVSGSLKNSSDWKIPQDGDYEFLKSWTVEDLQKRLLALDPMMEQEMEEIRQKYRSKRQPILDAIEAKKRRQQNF
Put plainly: anti-FLAG immunoprecipitation from co-transfected HEK293 cells, FLAG peptide elution, anti-HA immunoblot. (In western blotting, separated proteins are transferred to a membrane and probed.)
Procedure: (§2) FLAG-tagged proteins were immunopreciptated with anti-FLAG M2-agarose, eluted with the excess of the FLAG peptide. The eluates were analyzed by immunoblotting after SDS-PAGE. Upper panel: proteins immunoprecipitated (IP) by FLAG-agarose probed with anti-HA antibody 12CA5 (α-HA). Middle panel: cell extracts probed with anti-FLAG antibody (α-FLAG).

A further experiment deals with T2, FLAG-tagged GCK (human, UniProt Q12851 1-820).
T2 sequence: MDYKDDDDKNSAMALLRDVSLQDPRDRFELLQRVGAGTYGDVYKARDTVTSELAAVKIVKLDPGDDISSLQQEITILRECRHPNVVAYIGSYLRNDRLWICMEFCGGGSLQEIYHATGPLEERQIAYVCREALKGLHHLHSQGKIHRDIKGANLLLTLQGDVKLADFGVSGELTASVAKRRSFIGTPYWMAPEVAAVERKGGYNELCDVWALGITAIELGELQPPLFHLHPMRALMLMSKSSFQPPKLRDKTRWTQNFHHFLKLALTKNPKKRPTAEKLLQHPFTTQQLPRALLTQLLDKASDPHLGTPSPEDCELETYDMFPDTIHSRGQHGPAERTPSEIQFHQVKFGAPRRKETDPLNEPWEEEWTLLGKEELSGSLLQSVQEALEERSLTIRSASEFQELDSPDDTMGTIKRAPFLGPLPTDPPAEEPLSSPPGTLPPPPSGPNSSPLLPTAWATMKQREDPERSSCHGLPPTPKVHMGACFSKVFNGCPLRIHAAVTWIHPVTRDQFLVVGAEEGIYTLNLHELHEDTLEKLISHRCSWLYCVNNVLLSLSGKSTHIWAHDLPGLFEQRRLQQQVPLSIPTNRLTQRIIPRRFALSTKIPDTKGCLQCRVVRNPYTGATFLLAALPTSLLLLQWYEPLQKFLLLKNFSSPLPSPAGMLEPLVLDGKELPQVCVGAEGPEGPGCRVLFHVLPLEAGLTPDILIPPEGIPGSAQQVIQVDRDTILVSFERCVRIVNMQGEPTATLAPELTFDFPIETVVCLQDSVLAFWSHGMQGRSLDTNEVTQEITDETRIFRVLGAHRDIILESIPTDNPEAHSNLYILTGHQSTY
Put plainly: anti-FLAG immunoprecipitation from co-transfected HEK293 cells, anti-HA immunoblot.

For another experiment, the target named is T3, FLAG-tagged SOK (human, UniProt O00506 1-426).
T3 construct: also called SOK1
T3 sequence (O00506 other isoform, or with tags, fused parts or gaps limits assumed): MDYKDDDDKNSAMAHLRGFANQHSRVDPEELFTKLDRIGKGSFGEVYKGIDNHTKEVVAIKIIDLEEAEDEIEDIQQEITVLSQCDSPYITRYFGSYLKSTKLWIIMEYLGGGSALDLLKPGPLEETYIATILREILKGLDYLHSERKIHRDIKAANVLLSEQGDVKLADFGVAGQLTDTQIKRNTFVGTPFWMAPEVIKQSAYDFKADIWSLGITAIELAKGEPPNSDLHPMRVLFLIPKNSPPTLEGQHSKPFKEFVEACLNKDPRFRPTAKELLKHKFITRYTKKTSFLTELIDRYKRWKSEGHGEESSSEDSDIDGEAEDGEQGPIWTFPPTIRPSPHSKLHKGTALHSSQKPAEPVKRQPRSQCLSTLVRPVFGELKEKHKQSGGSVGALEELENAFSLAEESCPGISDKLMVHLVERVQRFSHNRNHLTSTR
The description is as above.

In the next experiment the target is T4, FLAG-tagged Ha-RasG12V (human, UniProt P01112 1-189).
T4 construct: also called FLAG-V12RAS; FLAG Ha-RasG12V
Put plainly: in vitro binding of FLAG-Ras from HEK293 extracts to GST fusion protein immobilized on GSH-agarose, anti-FLAG immunoblot. The source says: (§1) Aliquots of extracts from these cells (as shown in the center panel) were adsorbed to the immobilized GST proteins; the beads were washed extensively and eluted with SDS.

Another experiment addresses T5, FLAG-tagged Ki-RasG12V (Meleagris gallopavo (Wild turkey), UniProt P79800 1-188).
T5 construct: also called FLAG Ki-RasG12V
The experiment is described as above.
Text: as §1

Procedure for FLAG-tagged GCK: as §2
Procedure for FLAG-tagged SOK: as §2

B1: HA-NORE1 (other)
chain: MYPYDVPDYAMASPAIGQRPYPLLLDPEPPRYLQSLGGTEPPPPARPRRCIPTALIPAAGASEDRGGRRSGRRDPEPTPRDCRHARPVRPGLQPRLRLRPGSHRPRDVRSIFEQPQDPRVLAERGEGHRFVELALRGGPGWCDLCGREVLRQALRCANCKFTCHSECRSLIQLDCRQKGGPALDRRSPGSTLTPTLNQNVCKAVEETQHPPTIQEIKQKIDSYNSREKHCLGMKLSEDGTYTGFIKVHLKLRRPVTVPAGSGPSPSMDAIKEVNPAATTDKRTSFYLPLDAIKQLHISSTTTVSEVIQGLLKKFMVVDNPQKFALFKRIHKDGQVLFQKLSIADYPLYLRLLAGPDTDVLSFVLKENETGEVEWDAFSIPELQNFLTILEKEEQDKIHQLQKKYNKFRQKLEEALRESQGKPG
notes: also called recombinant hemagglutinin (HA)-tagged NORE fusion polypeptide
As for B1, the binding result in experiment [1] is reported as “binds”; with FLAG-tagged GCK, “no binding”; with FLAG-tagged SOK, “no binding”.

B2: GST-NORE (7-413) (other, not shown: a dimerising Fc or GST)
chain: GQRPYPLLLDPEPPRYLQSLGGTEPPPPARPRRCIPTALIPAAGASEDRGGRRSGRRDPEPTPRDCRHARPVRPGLQPRLRLRPGSHRPRDVRSIFEQPQDPRVLAERGEGHRFVELALRGGPGWCDLCGREVLRQALRCANCKFTCHSECRSLIQLDCRQKGGPALDRRSPGSTLTPTLNQNVCKAVEETQHPPTIQEIKQKIDSYNSREKHCLGMKLSEDGTYTGFIKVHLKLRRPVTVPAGSGPSPSMDAIKEVNPAATTDKRTSFYLPLDAIKQLHISSTTTVSEVIQGLLKKFMVVDNPQKFALFKRIHKDGQVLFQKLSIADYPLYLRLLAGPDTDVLSFVLKENETGEVEWDAFSIPELQNFLTILEKEEQDKIHQLQKKYNKFRQKLEEALRESQGKPG
As to B2, the binding result with FLAG-tagged Ha-RasG12V and with FLAG-tagged Ki-RasG12V was “binds” each time.

Source of the values: US20050064384A1 (published 2005).
